Experimental data reported in paper PMC11672299, “Conjugation of Polycationic Peptides Extends the Efficacy Spectrum of β‐Lactam Antibiotics” (Advanced Science, 2024).

Test: Scintigraphy and biodistribution in rats
Set-up: species or system Wistar rats
Settings: rat, in vivo, iv
Description: To enable radiolabeling of the β‐lactam–peptide conjugates, their peptide sequence was elongated by an N‐terminal D‐tyrosine. […] The solution was mixed with 5 MBq of iodine‐125 and radiolabeling was performed using the chloramine T method as previously described.^[ [35] ^] After 30 s, the reaction was quenched by the addition of a saturated methionine solution and the radiolabeled compound purified by reversed‐phase preparative radio‐HPLC (1100 series, Agilent Technologies, Santa Clara, CA, USA). Analysis was performed by analytical radio‐HPLC (1100 series, Agilent Technologies, Santa Clara, CA, USA) using a linear gradient from water (+ 0.1% TFA) to acetonitrile (+ 0.1% TFA) over 5 min at a flow rate of 2 mL min^−1.
All animal studies were approved by the Animal Care and Use committees from Regierungspräsidium Karlsruhe (Karlsruhe, Germany; reference number 35–9185.81/G‐199/21; date of approval: November 23, 2021). […]
The biodistribution of CTZ‐yR6 in Wistar rats was determined at 10 min and 3 h post injection. […] Using a Cobra γ‐counter (Packard Bioscience, Meriden, CT, USA), the amount of radioactivity in each sample was measured which was then used in combination with the organ weight and injected dose for the calculation of the […] per gram of tissue (%ID g^−1).

In the case of `CC(C)(O/N=C(\C(=O)N[C@@H]1C(=O)N2C(C(=O)[O-])=C(C[n+]3ccccc3)CS[C@H]12)c1csc(N)n1)C(=O)NCCCCCCN1C(=O)CC(SC[C@H](NC(=O)[C@H](CCCNC(=N)N)NC(=O)[C@H](CCCNC(=N)N)NC(=O)[C@H](CCCNC(=N)N)NC(=O)[C@H](CCCNC(=N)N)NC(=O)[C@H](CCCNC(=N)N)NC(=O)[C@@H](N)CCCNC(=N)N)C(N)=O)C1=O` (stereo partly shown) [CTZ-R6], the “biodistribution (organ accumulation)” value is reported as “accumulated in the liver and in the kidneys”.
